Reference: paper PMC4182028
Blank lines part the entries; values can stand above or below the substance they belong to.

Legend:
[1] = target: Chaetomium thermophilum p44 (residues 1-285) (Chaetomium thermophilum)
[2] = test system: ctXPD wild type (Chaetomium thermophilum); assay: BLI; conditions: 3'-biotin; BLI (Octet RED): 20 mM Tris-HCl pH 8.0, 150 mM NaCl, 10 mM MgCl2, 1 mM DTT, 1 mg/ml BSA; 0.5-5 uM ctXPD; temperature not stated
[3] = test system: ctXPD K719W (Chaetomium thermophilum); assay: BLI; conditions: 3'-biotin; BLI (Octet RED): 20 mM Tris-HCl pH 8.0, 150 mM NaCl, 10 mM MgCl2, 1 mM DTT, 1 mg/ml BSA; 0.5-5 uM ctXPD; temperature not stated
[4] = test system: ctXPD F192A (Chaetomium thermophilum); assay: BLI; conditions: 3'-biotin; BLI (Octet RED): 20 mM Tris-HCl pH 8.0, 150 mM NaCl, 10 mM MgCl2, 1 mM DTT, 1 mg/ml BSA; 0.5-5 uM ctXPD; temperature not stated
[5] = test system: ctXPD Y156A (Chaetomium thermophilum); assay: BLI; conditions: 3'-biotin; BLI (Octet RED): 20 mM Tris-HCl pH 8.0, 150 mM NaCl, 10 mM MgCl2, 1 mM DTT, 1 mg/ml BSA; 0.5-5 uM ctXPD; temperature not stated
[6] = test system: ctXPD wild type;ctp44 (1-285) (Chaetomium thermophilum;Chaetomium thermophilum); assay: BLI; conditions: 3'-biotin; BLI (Octet RED): 20 mM Tris-HCl pH 8.0, 150 mM NaCl, 10 mM MgCl2, 1 mM DTT, 1 mg/ml BSA; 0.5-5 uM ctXPD; temperature not stated
[7] = test system: ctXPD R195A (Chaetomium thermophilum); assay: BLI; conditions: 3'-biotin; BLI (Octet RED): 20 mM Tris-HCl pH 8.0, 150 mM NaCl, 10 mM MgCl2, 1 mM DTT, 1 mg/ml BSA; 0.5-5 uM ctXPD; temperature not stated
[8] = test system: ctXPD R195E (Chaetomium thermophilum); assay: BLI; conditions: 3'-biotin; BLI (Octet RED): 20 mM Tris-HCl pH 8.0, 150 mM NaCl, 10 mM MgCl2, 1 mM DTT, 1 mg/ml BSA; 0.5-5 uM ctXPD; temperature not stated
[9] = test system: ctXPD K48R (Chaetomium thermophilum); assay: BLI; conditions: 3'-biotin; BLI (Octet RED): 20 mM Tris-HCl pH 8.0, 150 mM NaCl, 10 mM MgCl2, 1 mM DTT, 1 mg/ml BSA; 0.5-5 uM ctXPD; temperature not stated

fluorescence-based helicase activity of ctXPD K719W with ctp44 (1-285) added (Rel. Fluorescence Change·s^−1) [1]: 4.8 | ssDNA-dependent ATPase activity of ctXPD K719W with ctp44 (1-285) added (mol ATP·s^−1 ·mol^−1 XPD) [1]: 0.12
Substance: Chaetomium thermophilum XPD K719W (enzyme)

ssDNA-dependent ATPase activity of ctXPD with ctp44 (1-285) added (0.12 without ctp44) (mol ATP·s^−1 ·mol^−1 XPD) [1]: 0.7
Substance: Chaetomium thermophilum XPD wild type (enzyme)

Substance: GACTACGTACTGTTACGGCTCCATCTCTACCGCAATCAGGCCAGATCTGC [50-nt ssDNA (BLI)]
Kd [2]: 118 nM | Kd [3]: 192 nM | Kd [4]: 668 nM | Kd [5]: 561 nM | Kd [6]: 93 nM | Kd [7]: 1040 nM | Kd [8]: 916 nM | Kd [9]: 159 nM
